Patent publication US20020110800A1, “Use of SHP-1 and SHP-2 to detect compounds involved in neuronal survival” (McGill University, priority 1997, published 2002)

Columns and labels:
Experiment in all cases: cell-based or functional assay
TrkA Y490/785F = TrkA Y490/785F (UniProt P04629)
TrkA Y490F = TrkA Y490F (UniProt P04629)
TrkA Y785F = TrkA Y785F (UniProt P04629)
[1] = target: wild-type TrkA, baculovirus-expressed, activated (autophosphorylated) (UniProt P04629)

B1: SHP-2 (enzyme, UniProt Q06124 2-593, looked up, species assumed)
Tyrosine-protein phosphatase non-receptor type 11: TSRRWFHPNITGVEAENLLLTRGVDGSFLARPSKSNPGDFTLSVRRNGAVTHIKIQNTGDYYDLYGGEKFATLAELVQYYMEHHGQLKEKNGDVIELKYPLNCADPTSERWFHGHLSGKEAEKLLTEKGKHGSFLVRESQSHPGDFVLSVRTGDDKGESNDGKSKVTHVMIRCQELKYDVGGGERFDSLTDLVEHYKKNPMVETLGTVLQLKQPLNTTRINAAEIESRVRELSKLAETTDKVKQGFWEEFETLQQQECKLLYSRKEGQRQENKNKNRYKNILPFDHTRVVLHDGDPNEPVSDYINANIIMPEFETKCNNSKPKKSYIATQGCLQNTVNDFWRMVFQENSRVIVMTTKEVERGKSKCVKYWPDEYALKEYGVMRVRNVKESAAHDYTLRELKLSKVGQGNTERTVWQYHFRTWPDHGVPSDPGGVLDFLEEVHHKQESIMDAGPVVVHCSAGIGRTGTFIVIDILIDIIREKGVDCDIDVPKTIQMVRSQRSGMVQTEAQYRFIYMAVQHYIETLQRRIEEEQKSKRKGHEYTNIKYSLADQTSGDQSPLPPCTPTPPCAEMREDSARVYENVGLMQQQKSFR
2 fold: Trk tyrosine dephosphorylation on co-expression in insect cells (anti-pTyr blot) (TrkA Y490/785F) | Trk tyrosine dephosphorylation on co-expression in insect cells (anti-pTyr blot) (TrkA Y490F) | Trk tyrosine dephosphorylation on co-expression in insect cells (anti-pTyr blot) (TrkA Y785F) | Trk tyrosine dephosphorylation on co-expression in insect cells (anti-pTyr blot) [1] | dephosphorylation of Trk at Y674/Y675 (phospho-specific anti-Trk antibodies, co-expression in insect cells) [1]
